Source: PMC12101485 (Science Advances, 2025)

Target: purified human BAG3 protein (human, UniProt O95817 1-575)
Experiment: peptide or protein array

purified human BAG3 protein, sequence (O95817 whole entry): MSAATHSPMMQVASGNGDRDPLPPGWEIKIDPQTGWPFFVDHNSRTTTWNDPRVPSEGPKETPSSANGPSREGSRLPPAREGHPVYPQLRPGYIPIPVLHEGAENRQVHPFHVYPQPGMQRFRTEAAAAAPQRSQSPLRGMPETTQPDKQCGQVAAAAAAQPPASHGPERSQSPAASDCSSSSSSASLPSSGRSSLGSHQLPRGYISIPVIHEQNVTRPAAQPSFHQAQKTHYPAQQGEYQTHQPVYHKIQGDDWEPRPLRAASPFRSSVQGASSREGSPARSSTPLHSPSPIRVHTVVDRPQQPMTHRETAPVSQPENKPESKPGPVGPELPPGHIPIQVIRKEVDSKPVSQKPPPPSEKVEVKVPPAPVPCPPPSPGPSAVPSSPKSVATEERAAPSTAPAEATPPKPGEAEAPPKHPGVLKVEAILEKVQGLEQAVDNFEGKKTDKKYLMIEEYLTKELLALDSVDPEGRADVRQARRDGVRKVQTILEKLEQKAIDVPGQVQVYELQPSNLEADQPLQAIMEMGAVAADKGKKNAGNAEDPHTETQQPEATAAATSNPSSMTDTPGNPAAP

binding result: binds
B1: I465-A494 region of human BACE1 (peptide array spots) (peptide, UniProt P56817 465-494, looked up)
peptide: ICALFMLPLCLMVCQWRCLRCLRQQHDDFA
